Test results: patent publication US20120039802A1 (published 2012)
fluorescein = fluorescein label on the side chain of the C-terminal Lys

Assays:
[1] = target: T1, human cMet expressed on 3T3 cells (human, UniProt P08581 25-1390); assay: whole cell phage ELISA, 3T3 human cMet vs 3T3
T1 construct: whole, on cells; cells fixed with glutaraldehyde; also called cell surface-expressed human cMet; 3T3 cells that over-express human cMet
In short: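 3T3 cells over-expressing human cMet, compared against parental 3T3, seeded at 10⁵ per well and fixed with 0.1% glutaraldehyde for 12 min at 37 C. Blocked peptide-displaying phage bound for 1 h at room temperature. After PBST washes, bound phage was detected with HRP-conjugated anti-M13 antibody.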

[2] = target: T2, cMet-Fc fusion protein (extracellular domain of the cMet receptor expressed as an Fc-fusion protein) (human, UniProt P08581 25-932); assay: phage ELISA, cMet-Fc vs TRAIL-Fc
T2 construct: extracellular domain; also called soluble cMet-Fc-fusion protein; soluble cMet receptor; not shown: Fc part
T2 sequence (P08581 25-932): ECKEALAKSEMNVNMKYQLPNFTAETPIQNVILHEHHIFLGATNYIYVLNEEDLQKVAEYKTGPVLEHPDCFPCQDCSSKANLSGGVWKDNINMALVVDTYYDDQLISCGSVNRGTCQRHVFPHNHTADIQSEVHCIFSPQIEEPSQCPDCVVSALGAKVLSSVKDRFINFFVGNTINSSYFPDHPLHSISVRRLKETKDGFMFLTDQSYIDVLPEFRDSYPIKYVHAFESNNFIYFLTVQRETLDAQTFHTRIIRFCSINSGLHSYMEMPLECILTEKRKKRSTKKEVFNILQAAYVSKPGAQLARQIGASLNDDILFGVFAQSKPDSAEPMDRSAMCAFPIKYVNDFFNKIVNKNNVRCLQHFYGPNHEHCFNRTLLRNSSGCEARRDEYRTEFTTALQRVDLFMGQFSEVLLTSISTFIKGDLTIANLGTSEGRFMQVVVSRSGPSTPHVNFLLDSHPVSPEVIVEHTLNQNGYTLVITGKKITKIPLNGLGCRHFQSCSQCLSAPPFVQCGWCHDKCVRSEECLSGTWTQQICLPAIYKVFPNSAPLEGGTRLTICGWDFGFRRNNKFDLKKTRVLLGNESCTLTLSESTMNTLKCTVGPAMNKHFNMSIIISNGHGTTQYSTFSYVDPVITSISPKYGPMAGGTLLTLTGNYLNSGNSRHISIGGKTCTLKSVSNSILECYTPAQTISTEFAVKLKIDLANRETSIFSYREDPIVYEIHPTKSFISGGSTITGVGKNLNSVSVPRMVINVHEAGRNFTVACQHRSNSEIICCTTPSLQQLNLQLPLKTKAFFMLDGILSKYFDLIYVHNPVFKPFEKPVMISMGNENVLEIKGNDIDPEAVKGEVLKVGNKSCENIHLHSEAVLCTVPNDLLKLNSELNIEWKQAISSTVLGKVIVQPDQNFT
In short: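 Plates coated overnight at 4 C with 0.5 μg/mL cMet-Fc, or TRAIL-Fc as background, were blocked with 3% BSA in PBST. Peptide-displaying phage were bound 2 h at room temperature. Bound phage were detected with HRP-conjugated anti-M13 antibody.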

[3] = target: T2, cMet-Fc fusion protein (extracellular …); assay: phage ELISA on cMet-Fc, competitor HGF 100 ng/mL
In short: (§1)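 Plates coated with 0.5 μg/mL cMet-Fc, with TRAIL-Fc as background, then blocked with 3% BSA. Bound phage detected with HRP anti-M13 antibody.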

[4] = target: T2, cMet-Fc fusion protein (extracellular …); assay: phage ELISA on cMet-Fc, competitor HGF 500 ng/mL
In short: as §1

[5] = target: T2, cMet-Fc fusion protein (extracellular …); assay: fluorescence polarization, 20 nM fluorescein peptide, cMet-Fc varied
Method: Fluorescence anisotropy measurements were performed in 384-well microplates in a volume of 10 μL in binding buffer (PBS, 0.01% Tween-20, pH 7.5) using a Tecan Polarion fluorescence polarization plate reader ([…]). […] Binding mixtures were equilibrated for 10 minutes in the microplate at 30 C before measurement. The observed change in anisotropy was fit to the equation below via nonlinear regression to obtain the apparent KD. This equation (1) assumes that the synthetic peptide and cMet form a reversible complex in solution with 1:1 stoichiometry.

T1 sequence (P08581 25-1390): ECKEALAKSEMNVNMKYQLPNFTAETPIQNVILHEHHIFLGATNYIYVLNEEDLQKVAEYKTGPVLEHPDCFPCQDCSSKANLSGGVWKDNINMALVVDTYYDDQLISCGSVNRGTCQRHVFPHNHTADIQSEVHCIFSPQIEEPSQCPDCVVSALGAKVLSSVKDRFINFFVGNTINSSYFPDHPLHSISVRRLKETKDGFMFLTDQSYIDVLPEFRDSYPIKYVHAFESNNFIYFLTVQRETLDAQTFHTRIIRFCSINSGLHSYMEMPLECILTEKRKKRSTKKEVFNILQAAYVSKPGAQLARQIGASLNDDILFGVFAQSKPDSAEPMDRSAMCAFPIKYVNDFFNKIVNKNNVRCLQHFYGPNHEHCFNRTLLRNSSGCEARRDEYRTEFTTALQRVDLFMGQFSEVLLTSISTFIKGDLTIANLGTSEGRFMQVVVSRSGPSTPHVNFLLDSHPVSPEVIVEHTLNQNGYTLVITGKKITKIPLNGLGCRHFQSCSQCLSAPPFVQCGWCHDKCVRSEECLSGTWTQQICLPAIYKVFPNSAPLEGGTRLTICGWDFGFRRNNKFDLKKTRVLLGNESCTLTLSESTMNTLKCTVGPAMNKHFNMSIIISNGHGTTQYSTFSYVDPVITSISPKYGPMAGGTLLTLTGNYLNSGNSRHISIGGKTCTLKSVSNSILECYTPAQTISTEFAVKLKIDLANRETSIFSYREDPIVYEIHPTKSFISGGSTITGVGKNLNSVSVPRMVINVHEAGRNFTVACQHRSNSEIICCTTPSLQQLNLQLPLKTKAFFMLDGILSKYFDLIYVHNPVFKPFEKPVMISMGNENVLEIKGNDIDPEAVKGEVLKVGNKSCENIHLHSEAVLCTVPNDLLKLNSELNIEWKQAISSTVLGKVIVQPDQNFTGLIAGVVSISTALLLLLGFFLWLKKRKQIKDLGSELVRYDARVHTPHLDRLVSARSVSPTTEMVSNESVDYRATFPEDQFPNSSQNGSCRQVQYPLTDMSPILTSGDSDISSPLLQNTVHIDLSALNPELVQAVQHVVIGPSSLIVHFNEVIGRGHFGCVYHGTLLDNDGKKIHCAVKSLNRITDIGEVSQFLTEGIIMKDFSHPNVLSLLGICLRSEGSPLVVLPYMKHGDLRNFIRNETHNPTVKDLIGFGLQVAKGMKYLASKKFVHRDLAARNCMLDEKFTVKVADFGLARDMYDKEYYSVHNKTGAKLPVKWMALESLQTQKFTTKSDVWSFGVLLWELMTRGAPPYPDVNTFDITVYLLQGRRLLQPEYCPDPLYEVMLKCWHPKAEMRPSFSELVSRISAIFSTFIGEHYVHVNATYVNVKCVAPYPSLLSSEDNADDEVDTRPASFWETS

Binder | WC ELISA (fold over background) [1] | Protein ELISA (fold over background) [2] | % of binding in the absence of HGF [3] | % of binding in the absence of HGF [4] | Kd [5]
AGYPECKDNYHWCEWKGT [457-A09 peptide-displaying phage (SEQ ID NO: 024)] | 1.3 fold | 14.5 fold | 27% | 67% | –
AQRDYLFYWNDGSYQPWQVFVG [523-A04 peptide-displaying phage (SEQ ID NO: 493)] | 1.3 fold | 5.5 fold | 133% | 143% | –
AGVLQCIGFEWFCDIWGT [423-C11 peptide-displaying phage (SEQ ID NO: 022)] | 1.4 fold | 3.4 fold | 132% | 75% | –
AQQWMFQIHQSMAWPYEWIDSY [524-D07 peptide-displaying phage (SEQ ID NO: 494)] | 1.23 fold | 3.9 fold | 105% | 104% | –
Ac-AQQASRFTFTDGDSYWWFEDFGGGK(fluorescein)-NH2 [525-A07 synthetic fluorescein-labeled peptide (SEQ ID NO: 449)] | – | – | – | – | 6900 nM
AGDHYCWEEWWFCWDSGT [482-A12 peptide-displaying phage (SEQ ID NO: 021)] | 1.37 fold | 3.5 fold | 98% | 79% | –
Ac-AQRPEAHYKLAMSYPIIPRTKTGGGK(fluorescein)-NH2 [96-H12 synthetic fluorescein-labeled peptide (SEQ ID NO: 452)] | – | – | – | – | > 2000 nM
Ac-AGSIQCVGPPSFECTPYGTGGGK(fluorescein)-NH2 (cysteine pairing not given here) [335-D11 synthetic fluorescein-labeled peptide (SEQ ID NO: 074)] | – | – | – | – | 3300 nM
Ac-AGWFQCKGPPSFECERHGTGGGK(fluorescein)-NH2 (cysteine pairing not given here) [336-G04 synthetic fluorescein-labeled peptide (SEQ ID NO: 051)] | – | – | – | – | 3200 nM
Ac-GDYDYCDFDLETYIPECHSYDPGGGK(fluorescein)-NH2 (cysteine pairing not given here) [546-G02 synthetic fluorescein-labeled peptide (SEQ ID NO: 390)] | – | – | – | – | 1500 nM
Ac-AQRWSSPGMSQSFVLEWKWNDNGGGK(fluorescein)-NH2 [118-A08 synthetic fluorescein-labeled peptide (SEQ ID NO: 453)] | – | – | – | – | > 2000 nM
Ac-AGEWWCHGPPEFLCYWTGTGGGK(fluorescein)-NH2 (cysteine pairing not given here) [331-F01 synthetic fluorescein-labeled peptide (SEQ ID NO: 072)] | – | – | – | – | 980 nM
Ac-AGWISCAGPPTFACWPGGTGGGK(fluorescein)-NH2 (cysteine pairing not given here) [548-F06 synthetic fluorescein-labeled peptide (SEQ ID NO: 056)] | – | – | – | – | 2700 nM
AQGIAWQLEWSYMPQSPPSFDR [522-H03 peptide-displaying phage (SEQ ID NO: 495)] | 1.17 fold | 4.5 fold | 107% | 94% | –
AGVWICRVWDDECFFQGT [376-E05 peptide-displaying phage (SEQ ID NO: 020)] | 1.37 fold | 3.7 fold | 122% | 121% | –
Ac-AGHAWCSGPPRFECWPPGTGGGK(fluorescein)-NH2 (cysteine pairing not given here) [329-D02 synthetic fluorescein-labeled peptide (SEQ ID NO: 061)] | – | – | – | – | 5200 nM

Binder | WC ELISA (fold over background) [1] | Protein ELISA (fold over background) [2] | % of binding in the absence of HGF [3] | % of binding in the absence of HGF [4] | Kd [5]
Ac-AGGWECTGPPWFQCGYYGTGGGK(fluorescein)-NH2 (cysteine pairing not given here) [334-C08 synthetic fluorescein-labeled peptide (SEQ ID NO: 067)] | – | – | – | – | 1650 nM
Ac-AGHWICVGPPTFSCQWHGTGGGK(fluorescein)-NH2 (cysteine pairing not given here) [330-G09 synthetic fluorescein-labeled peptide (SEQ ID NO: 071)] | – | – | – | – | 1850 nM
AGTVYCSWESSECWWVGT [352-E04 peptide-displaying phage (SEQ ID NO: 019)] | 1.37 fold | 3.9 fold | 88% | 74% | –
Ac-AQVGSPMLPSWFSFEANWSSGGGK(fluorescein)-NH2 [95-A11 synthetic fluorescein-labeled peptide (SEQ ID NO: 456)] | – | – | – | – | 2300 nM
Ac-AGNWICTGPPSFGCWYHGTGGGK(fluorescein)-NH2 (cysteine pairing not given here) [331-G06 synthetic fluorescein-labeled peptide (SEQ ID NO: 078)] | – | – | – | – | 2900 nM
Ac-AQYDTWVFQFIHEVPGELVAMQGGGK(fluorescein)-NH2 [94-E08 synthetic fluorescein-labeled peptide (SEQ ID NO: 454)] | – | – | – | – | 930 nM
Ac-AGWTHCIGPPTFECIPMGTGGGK(fluorescein)-NH2 (cysteine pairing not given here) [334-G06 synthetic fluorescein-labeled peptide (SEQ ID NO: 052)] | – | – | – | – | 2700 nM
Ac-AGDIVCTGHPYFECWSWGTGGGK(fluorescein)-NH2 (cysteine pairing not given here) [333-C05 synthetic fluorescein-labeled peptide (SEQ ID NO: 068)] | – | – | – | – | 2800 nM
AQGGRYPFYDTDWFKWEMYVL [527-A10 peptide-displaying phage (SEQ ID NO: 496)] | 1.3 fold | 3.8 fold | 84% | 78% | –
AGVIVCNLSMMYCLYPGT [499-C09 peptide-displaying phage (SEQ ID NO: 023)] | 1.33 fold | 3.2 fold | 91% | 70% | –
Ac-AGSIQCKGPPWFSCAMYGTGGGK(fluorescein)-NH2 (cysteine pairing not given here) [325-H05 synthetic fluorescein-labeled peptide (SEQ ID NO: 048)] | – | – | – | – | 3500 nM
Ac-AQIQGIQKTEQGEFYWFNWFPAGGGK(fluorescein)-NH2 [528-F05 synthetic fluorescein-labeled peptide (SEQ ID NO: 450)] | – | – | – | – | 2700 nM
Ac-AQREVEEPYWYLDFLSSWRMHEGGGK(fluorescein)-NH2 [524-E09 synthetic fluorescein-labeled peptide (SEQ ID NO: 451)] | – | – | – | – | 2000 nM
Ac-GDDFHCEFIDDYQSEICYFNDPGGGK(fluorescein)-NH2 (cysteine pairing not given here) [333-C03 synthetic fluorescein-labeled peptide (SEQ ID NO: 391)] | – | – | – | – | 1800 nM
Ac-AGYTSCVGPPSFECTPYGTGGGK(fluorescein)-NH2 (cysteine pairing not given here) [323-A11 synthetic fluorescein-labeled peptide (SEQ ID NO: 059)] | – | – | – | – | 4300 nM
Ac-AGSFACKGPPTFACVEFGTGGGK(fluorescein)-NH2 (cysteine pairing not given here) [330-B07 synthetic fluorescein-labeled peptide (SEQ ID NO: 053)] | – | – | – | – | 2900 nM
